Patent US20160068595A1 (DEVELOPMEN CENTER FOR BIOTECHNOLOGY, published 2016)
Numbering of substitutions follows the chain as printed. Each block holds one binder with its values, some of them ahead of it.

Assays:
[1] = target: T1, human IL-20 (interleukin-20), recombinant (human, UniProt Q9NYY1 25-176); assay: binding kinetics of CDR mutants; method not named
T1 construct: Analyte in the BIAcore assay and stimulus (300 pM) in the BaF3 proliferation assay; also called hIL-20; human cytokine IL20
T1 sequence (looked up): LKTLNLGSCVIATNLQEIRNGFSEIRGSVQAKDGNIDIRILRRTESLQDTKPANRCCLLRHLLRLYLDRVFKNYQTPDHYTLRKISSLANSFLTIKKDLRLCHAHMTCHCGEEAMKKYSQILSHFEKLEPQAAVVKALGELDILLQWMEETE

[2] = target: T1, human IL-20 (interleukin-20), …; assay: SPR, BIAcore T100; antibody captured on anti-human IgG CM5 chip, IL-20 as analyte, 1:1 model
Description: The human IL-20-binding kinetics of each purified anti-IL-20 antibody was estimated by surface plasmon resonance measurements using the BIAcore T100 biosensor system. The anti-IL-20 Ab was captured on an anti-human IgG immobilized CM5 sensor chip. The immobilized level of anti-human IgG was about 9,000-10,000 RU and the capture level of anti-IL-20 antibody was about 350-400 RU. Binding was carried out at constant flow rates of 30 μL/min of IL-20 at various dilutions in HEPES buffered saline (BIA certified) for 60 seconds. Dissociations were carried out by passing through HEPES buffer for 480 seconds. Regeneration of the surface was carried out by […] 10 mM Glycine pH 2.0/1.5 (50:50) for 40 seconds.
The IL-20 affinity of each of the anti-IL-20 antibodies were calculated from an affinity binding curve fit using the predefined model (1:1 binding) provided by Biacore T100 evaluation software 2.0.

Kd [1]: 0.437 nM | koff [1]: 0.000431 s⁻¹ | kon [1]: 988000 M⁻¹ s⁻¹
B1: FLB35 (HH12 variant) (antibody, V domains shown)
VH: EVQLQESGGGLVQPGGSLRLSCAASGFTFSDAWMDWVRQAPGKGLEWVGEIRSKANNYATYFAESVKGRFTISRDDSKNSLYLQMNSLKTEDTGVYYCTKLDLRYWFFDVWGQGTLVTVSS
VL: DIQMTQSPLSLSVTPGQPASISCKSSQSLLDYDGKTYLNWYQQKPGQSPQLLIYLVSKLDSGVPDRFSGSGSGTDFTLKISRVEAEDVGVYYCWQSTLFPWTFGQGTKVEIKR

Kd [1]: 0.803 nM | koff [1]: 0.000713 s⁻¹ | kon [1]: 888000 M⁻¹ s⁻¹
B2: FLB67 (HH12 variant) (antibody, V domains shown)
VH: B1 VH with D102S, R104Q
VL: B1 VL with L55Q, L98H

Kd [1]: 4.03 nM | koff [1]: 0.00283 s⁻¹ | kon [1]: 703000 M⁻¹ s⁻¹
B3: FLB35(S) (FLB35 with Ser at CDRL1 position 27E) (antibody, V domains shown)
VH: B1 VH
VL: B1 VL with Y32S

Kd [2]: 0.781 nM | koff [2]: 0.000711 s⁻¹ | kon [2]: 911000 M⁻¹ s⁻¹
B4: mouse anti-IL-20 monoclonal antibody 7E (antibody, V domains shown)
VH: ELKLEESGGGLVQPGGSMKLSCAASGFTFSDAWMDWVRQSPEKGLEWIAEIRSKANNYATYFAESVKGRFTISRDDSKSGVYLQMNNLRAEDTGIYFCTKLSLRYWFFDVWGAGTTVTVSS
VL: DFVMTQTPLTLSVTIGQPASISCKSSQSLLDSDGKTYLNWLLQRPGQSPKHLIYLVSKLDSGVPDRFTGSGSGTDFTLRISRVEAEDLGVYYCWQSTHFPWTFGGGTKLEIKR
notes: Mouse monoclonal antibody; The BIAcore method captures antibody on anti-human IgG; also called mAb 7E; mAb E7
